Test results published in publication PMC3413214, “Structural and biochemical characterization of a trapped coenzyme A adduct of Caenorhabditis elegans glucosamine-6-phosphate N-acetyltransferase 1” (Acta Crystallographica Section D: Biological Crystallography, 2012).

Tests used:
[1] = target: the molecule itself; test: SEC; Superdex 75 26/60 gel-filtration column in buffer A (25 mM Tris-HCl pH 7.5, 250 mM NaCl, 2 mM EDTA); elution profile
[2] = target: the molecule itself; test: crystal structure; sitting-drop vapour diffusion, 0.1 M Tris-HCl pH 8.5, 0.2 M sodium acetate, 30% PEG 3350, 11 mM BaCl2, 293 K; orthorhombic P2_1 2_1 2_1 form (1.75 Å, CoA and GlcNAc-6P bound) and hexagonal P6_1 form (1.55 Å, Cys141-CoA adduct); two subunits A and B in each

Protein | stoichiometry N [1] | binding result [2]
Caenorhabditis elegans glucosamine-6-phosphate N-acetyltransferase 1 (enzyme, UniProt Q17427 1-165, looked up, glucosamine-6-phosphate N-acetyltransferase 1 (GNA1) of Caenorhabditis elegans, full length, 165 amino acids per monomer; amplified from C. elegans cosmid B0024 DNA; Cloned into pGEX-6P-1 by BamHI and EcoRI; a few vector residues probably remain at the N-terminus after PreScission cleavage (surmised); In the orthorhombic crystal it holds CoA and GlcNAc-6P non-covalently; also called CeGNA1; GNA1; …) MSHIFDASVLAPHIPSNLPDNFKVRPLAKDDFSKGYVDLLSQLTSVGNLDQEAFEKRFEAMRTSVPNYHIVVIEDSNSQKVVASASLVVEMKFIHGAGSRGRVEDVVVDTEMRRQKLGAVLLKTLVSLGKSLGVYKISLECVPELLPFYSQFGFQDDCNFMTQRF | 2 | 
CeGNA1–Cys–CoA adduct (enzyme, Caenorhabditis elegans, UniProt Q17427 1-165, looked up, Cys141 linked by a disulfide to coenzyme A, glucosamine-6-phosphate N-acetyltransferase 1 (GNA1) of Caenorhabditis elegans, full length, 165 amino acids per monomer; same construct as m1; Same polypeptide as m1; differs only by the covalent CoA on Cys141, which DTT releases; also called CeGNA1–CoA adduct; covalent CoA complex; source: E. coli BL21 (DE3) pLysS, purified; adduct formed in the hexagonal (P6_1) crystals grown with acetyl-CoA, …) MSHIFDASVLAPHIPSNLPDNFKVRPLAKDDFSKGYVDLLSQLTSVGNLDQEAFEKRFEAMRTSVPNYHIVVIEDSNSQKVVASASLVVEMKFIHGAGSRGRVEDVVVDTEMRRQKLGAVLLKTLVSLGKSLGVYKISLECVPELLPFYSQFGFQDDCNFMTQRF |  | binds
